Experimental data as given in PMC4036194, “Crystal Structure and Molecular Imaging of the Nav Channel β3 Subunit Indicates a Trimeric Assembly*” (The Journal of Biological Chemistry, 2014).

Legend:
[1] = molecular target: T1, Human Nav 1.5 α subunit with a carboxyl-terminal hemagglutinin (HA) epitope tag (human, UniProt Q14524 1-2016); test: atomic force microscopy (AFM) imaging; α subunit isolated through its HA tag from tsA 201 cells co-transfected with wild-type Myc-tagged β3; co-isolated sample on mica, imaged in air in tapping mode; settings: both partners purified
T1 construct: Nav 1.5 sodium channel α subunit, human; ~250 kDa; Construct provided by Dr. C; source: tsA 201 cells, transfected (pcDNA3N); immunoisolated from detergent extract (anti-HA agarose, HA peptide elution); not shown: HA, C-terminal, kept

[2] = molecular target: the molecule itself; test: fluorescence photoactivated localization microscopy (FPALM) with pair correlation analysis; mEos2 fusions on the plasma membrane of fixed, transfected HEK293 cells; TIRF-PALM; 30 regions of 1 μm^2 on five cells; proteins per cluster
[3] = molecular target: the molecule itself; test: crystal structure; deglycosylated β3 Ig domain; sitting drop, 1 M sodium citrate tribasic, 0.1 M CHES/sodium hydroxide pH 9.5, 19 °C; space group P3(1)21, three molecules in the asymmetric unit; 2.5 Å

T1 sequence (Q14524 whole entry): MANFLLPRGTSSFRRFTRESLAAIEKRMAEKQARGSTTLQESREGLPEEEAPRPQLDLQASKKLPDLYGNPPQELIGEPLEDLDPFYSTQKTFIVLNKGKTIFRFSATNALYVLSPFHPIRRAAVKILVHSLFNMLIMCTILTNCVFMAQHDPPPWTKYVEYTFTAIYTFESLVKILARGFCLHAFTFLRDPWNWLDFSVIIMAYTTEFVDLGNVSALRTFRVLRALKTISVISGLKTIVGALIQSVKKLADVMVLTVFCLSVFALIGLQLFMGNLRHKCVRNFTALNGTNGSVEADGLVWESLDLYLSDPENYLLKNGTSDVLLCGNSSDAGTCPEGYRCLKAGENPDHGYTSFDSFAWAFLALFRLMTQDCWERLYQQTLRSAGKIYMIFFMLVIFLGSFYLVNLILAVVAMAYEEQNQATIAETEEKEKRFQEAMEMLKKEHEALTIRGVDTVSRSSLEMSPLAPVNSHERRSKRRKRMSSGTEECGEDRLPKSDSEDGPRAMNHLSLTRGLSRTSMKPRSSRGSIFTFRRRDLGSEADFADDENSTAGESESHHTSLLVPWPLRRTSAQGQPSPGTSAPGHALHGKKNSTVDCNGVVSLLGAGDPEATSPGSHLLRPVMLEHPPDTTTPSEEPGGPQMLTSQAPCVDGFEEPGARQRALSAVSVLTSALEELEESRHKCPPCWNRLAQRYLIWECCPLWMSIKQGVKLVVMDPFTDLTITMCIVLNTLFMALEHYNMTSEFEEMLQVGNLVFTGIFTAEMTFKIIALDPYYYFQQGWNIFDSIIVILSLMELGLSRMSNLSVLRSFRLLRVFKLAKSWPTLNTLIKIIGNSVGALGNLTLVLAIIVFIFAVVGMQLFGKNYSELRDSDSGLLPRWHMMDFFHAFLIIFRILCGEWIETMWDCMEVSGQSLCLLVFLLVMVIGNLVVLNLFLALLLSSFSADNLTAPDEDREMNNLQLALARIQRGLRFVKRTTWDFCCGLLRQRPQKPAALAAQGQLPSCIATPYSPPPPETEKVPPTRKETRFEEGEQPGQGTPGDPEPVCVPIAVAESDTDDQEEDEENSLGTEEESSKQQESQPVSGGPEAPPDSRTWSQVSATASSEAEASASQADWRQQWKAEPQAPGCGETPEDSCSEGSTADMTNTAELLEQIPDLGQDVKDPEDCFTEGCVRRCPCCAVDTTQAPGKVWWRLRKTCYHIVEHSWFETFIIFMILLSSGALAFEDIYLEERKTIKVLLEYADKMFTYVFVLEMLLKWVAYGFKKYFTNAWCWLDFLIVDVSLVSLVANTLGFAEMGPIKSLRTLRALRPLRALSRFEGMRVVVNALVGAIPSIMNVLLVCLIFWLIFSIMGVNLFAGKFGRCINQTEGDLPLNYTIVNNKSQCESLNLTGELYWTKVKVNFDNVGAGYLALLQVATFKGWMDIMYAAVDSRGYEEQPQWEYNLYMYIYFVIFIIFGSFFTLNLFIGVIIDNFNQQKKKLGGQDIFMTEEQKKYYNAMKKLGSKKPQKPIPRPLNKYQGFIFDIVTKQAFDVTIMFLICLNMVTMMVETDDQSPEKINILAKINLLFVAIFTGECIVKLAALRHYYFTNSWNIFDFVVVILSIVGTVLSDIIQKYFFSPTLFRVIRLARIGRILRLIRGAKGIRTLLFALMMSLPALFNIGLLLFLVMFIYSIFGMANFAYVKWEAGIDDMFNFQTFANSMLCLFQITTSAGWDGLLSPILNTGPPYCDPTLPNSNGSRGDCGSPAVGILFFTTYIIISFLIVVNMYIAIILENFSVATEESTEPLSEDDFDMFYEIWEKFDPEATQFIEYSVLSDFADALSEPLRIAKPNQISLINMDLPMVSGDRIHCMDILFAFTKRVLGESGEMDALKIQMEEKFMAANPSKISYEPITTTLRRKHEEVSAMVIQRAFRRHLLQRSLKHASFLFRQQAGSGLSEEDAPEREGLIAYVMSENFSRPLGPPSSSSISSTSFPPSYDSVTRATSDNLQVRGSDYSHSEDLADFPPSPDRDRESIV

B1: Full-length human β3 subunit with a carboxyl-terminal Myc epitope tag (natural protein, UniProt Q9NY72 23-215, looked up)
chain: FPVCVEVPSETEAVQGNPMKLRCISCMKREEVEATTVVEWFYRPEGGKDFLIYEYRNGHQEVESPFQGRLQWNGSKDLQDVSITVLNVTLNDSGLYTCNVSREFEFEAHRPFVKTTRLIPLRVTEEAGEDFTSVVSEIMMYILLVFLTLWLLIEMIYCYRKVSKAEEAAQENASDYLAIPSENKENSAVPVEE
notes: Nav channel β3 subunit (SCN3B), human, full length; runs at ~40 kDa (glycosylated) and ~30 kDa (likely unglycosylated); numbers count on: the mature protein; also called Myc-tagged β3 subunit; wild-type β3; source: tsA 201 cells, transfected (pFastBacMam); immunoisolated from detergent extract (anti-Myc agarose, Myc peptide elution); in detergent extract of co-transfected cells for co-isolation …
Question: With B1 as the binder, how does the “stoichiometry N” value [1] read?
Answer: Its value is 4.

B2: Full-length β3 subunit tagged at the carboxyl terminus with mEos2 (natural protein, UniProt Q9NY72 23-215, looked up)
chain: B1 chain
notes: Nav channel β3 subunit (SCN3B), full length; also called β3-mEos2; β3-mEOS2; source: HEK293 cells, transiently transfected, on the plasma membrane of fixed cells; not shown: mEos2, C-terminal, kept
Question: How did the “stoichiometry N” value [2] turn out when B2 was run?
Answer: Its value is 3.

B3: Nav channel β3 subunit Ig domain with carboxyl-terminal hexa-His tag (domain or fragment, human)
chain: VCVEVPSETEAVQGNPMKLRCISCMKREEVEATTVVEWFYRPEGGKDFLIYEYRNGHQEVESPFQGRLQWNGSKDLQDVSITVLNVTLNDSGLYTCNVSREFEFEAHRPFVKTTRLIPLRV
modifications: disulfide bonds Cys-2–24 and Cys-21–96
notes: Nav channel β3 subunit (SCN3B), human, extracellular Ig domain; the cDNA also encodes the amino-terminal ER targeting signal, which was efficiently removed on secretion; 127 amino acids in total, theoretical mass 14.8 kDa; numbers count on: the mature protein; Deglycosylated with peptide:N-glycosidase F for crystallisation; chemically cross-linked for AUC; Surmise: the 127 residues are the mature …
Question: With B3 as the binder, how does the “stoichiometry N” value [3] read?
Answer: Its value is 3.
